Like-named read-outs stand apart in the source and are kept apart here.

The values that follow come from publication PMC6080939 (The Journal of Cell Biology, 2018).

Holding throughout (assay): AFM single-cell force spectroscopy
The target of test [1] is integrin α4β7 (human (endogenous in RPMI 8866–CXCR3)) (UniProt P13612).
Test [2] shares this target. This is another data set of the same source.
The target is the same in test [3]. The source holds these as a separate data set.
Test [4] has the same target. The source holds these as a separate data set.
Test [5] shares this target. This is another data set of the same source.
The target is the same in test [6]. This is another data set of the same source.
For test [7], the target named is T1, integrin α4β7 (human (endogenous in RPMI 8866–CXCR3), UniProt P13612 34-1032; P26010 20-798).
Test [8] addresses T1, integrin α4β7. The source holds these as a separate data set.
Test [9] concerns the target T1, integrin α4β7. The source holds these as a separate data set.

T1 sequence (P13612 34-1032, chain 1 of 2): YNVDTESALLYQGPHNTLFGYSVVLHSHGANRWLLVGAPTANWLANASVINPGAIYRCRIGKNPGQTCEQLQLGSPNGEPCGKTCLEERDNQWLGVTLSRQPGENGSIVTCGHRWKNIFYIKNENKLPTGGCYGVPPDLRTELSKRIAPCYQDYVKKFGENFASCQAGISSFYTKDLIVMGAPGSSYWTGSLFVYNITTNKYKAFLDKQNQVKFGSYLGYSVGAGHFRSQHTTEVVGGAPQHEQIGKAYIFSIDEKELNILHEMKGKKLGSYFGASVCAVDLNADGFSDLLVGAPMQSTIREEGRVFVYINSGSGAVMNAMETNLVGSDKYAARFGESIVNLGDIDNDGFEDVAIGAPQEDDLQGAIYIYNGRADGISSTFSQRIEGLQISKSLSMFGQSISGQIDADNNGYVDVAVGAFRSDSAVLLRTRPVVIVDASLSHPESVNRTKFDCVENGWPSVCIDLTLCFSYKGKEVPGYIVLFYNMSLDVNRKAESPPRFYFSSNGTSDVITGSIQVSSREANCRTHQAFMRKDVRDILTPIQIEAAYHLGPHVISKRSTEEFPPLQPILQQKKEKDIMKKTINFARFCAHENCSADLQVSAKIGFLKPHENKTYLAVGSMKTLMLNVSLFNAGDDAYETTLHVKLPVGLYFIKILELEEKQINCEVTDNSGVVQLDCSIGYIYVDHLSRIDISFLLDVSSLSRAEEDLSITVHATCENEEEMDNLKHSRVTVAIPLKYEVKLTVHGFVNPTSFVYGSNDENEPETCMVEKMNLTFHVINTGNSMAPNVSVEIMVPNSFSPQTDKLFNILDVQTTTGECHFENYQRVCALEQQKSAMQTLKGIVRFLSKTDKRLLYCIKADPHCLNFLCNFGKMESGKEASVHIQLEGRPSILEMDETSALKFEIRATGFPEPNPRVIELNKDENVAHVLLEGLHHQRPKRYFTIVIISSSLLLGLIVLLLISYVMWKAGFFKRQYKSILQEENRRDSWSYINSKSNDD
T1 sequence (P26010 20-798, chain 2 of 2): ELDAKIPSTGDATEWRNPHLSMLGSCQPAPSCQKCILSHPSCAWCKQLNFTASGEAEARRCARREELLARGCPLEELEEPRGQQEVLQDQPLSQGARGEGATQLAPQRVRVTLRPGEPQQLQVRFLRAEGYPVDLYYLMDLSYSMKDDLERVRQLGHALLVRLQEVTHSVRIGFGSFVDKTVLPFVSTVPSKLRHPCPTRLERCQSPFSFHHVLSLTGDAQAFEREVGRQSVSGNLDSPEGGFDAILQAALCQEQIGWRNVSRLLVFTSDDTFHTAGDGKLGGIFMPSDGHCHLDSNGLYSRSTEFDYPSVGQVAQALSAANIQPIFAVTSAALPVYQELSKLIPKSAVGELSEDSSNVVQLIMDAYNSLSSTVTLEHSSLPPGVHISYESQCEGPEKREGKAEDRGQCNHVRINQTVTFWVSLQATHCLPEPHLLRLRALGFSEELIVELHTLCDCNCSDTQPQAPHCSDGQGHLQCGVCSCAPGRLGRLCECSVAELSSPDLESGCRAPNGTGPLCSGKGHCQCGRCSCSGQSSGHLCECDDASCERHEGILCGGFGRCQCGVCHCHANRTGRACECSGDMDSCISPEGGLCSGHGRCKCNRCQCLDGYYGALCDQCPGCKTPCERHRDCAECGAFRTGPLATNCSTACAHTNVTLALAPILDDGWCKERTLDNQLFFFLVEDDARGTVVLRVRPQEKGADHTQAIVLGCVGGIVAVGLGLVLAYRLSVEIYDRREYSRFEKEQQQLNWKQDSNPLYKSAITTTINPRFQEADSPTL
Chain of integrin α4β7 (human (endogenous in RPMI 8866–CXCR3)) (P13612 34-1032, chain 1 of 2): as the sequence (P13612 34-1032, chain 1 of 2) above
Chain of integrin α4β7 (human (endogenous in RPMI 8866–CXCR3)) (P26010 20-798, chain 2 of 2, further chain): as the sequence (P26010 20-798, chain 2 of 2) above

For orientation: koff means the first-order rate constant of dissociation. “MAdCAM-1 (adsorbed on the surface for AFM single-cell force spectroscopy) (from UniProt Q13477 19-382) (ligand)”: the single-bond unbinding force in [1] is 32 pN; in test [3], 35 to 80 pN. Moreover, the off-rate (koff) stood at 1.17 s⁻¹ in test [2], 1.03 s⁻¹ in [3] and 0.4 s⁻¹ in test [5]. Further, the adhesion frequency in test [3] stood at 31%; in test [4] it was 55%; in test [6], 25%.

B1: VCAM-1 (adsorbed on the surface for AFM single-cell force spectroscopy) (ligand, human, UniProt P19320 25-698, looked up)
chain: FKIETTPESRYLAQIGDSVSLTCSTTGCESPFFSWRTQIDSPLNGKVTNEGTTSTLTMNPVSFGNEHSYLCTATCESRKLEKGIQVEIYSFPKDPEIHLSGPLEAGKPITVKCSVADVYPFDRLEIDLLKGDHLMKSQEFLEDADRKSLETKSLEVTFTPVIEDIGKVLVCRAKLHIDEMDSVPTVRQAVKELQVYISPKNTVISVNPSTKLQEGGSVTMTCSSEGLPAPEIFWSKKLDNGNLQHLSGNATLTLIAMRMEDSGIYVCEGVNLIGKNRKEVELIVQEKPFTVEISPGPRIAAQIGDSVMLTCSVMGCESPSFSWRTQIDSPLSGKVRSEGTNSTLTLSPVSFENEHSYLCTVTCGHKKLEKGIQVELYSFPRDPEIEMSGGLVNGSSVTVSCKVPSVYPLDRLEIELLKGETILENIEFLEDTDMKSLENKSLEMTFIPTIEDTGKALVCQAKLHIDDMEFEPKQRQSTQTLYVNVAPRDTTVLVSPSSILEEGSSVNMTCLSQGFPAPKILWSRQLPNGELQPLSENATLTLISTKMEDSGVYLCEGINQAGRSRKEVELIIQVTPKDIKLTAFPSESVKEGDTVIISCTCGNVPETWIILKKKAETGDTVLKSIDGAYTIRKAQLKDAGVYECESKNKVGSQLRSLTLDVQGRENNKDYFSPE
Take B1: the koff amounted to 0.83 s⁻¹ with integrin α4β7 [7], 1.75 s⁻¹ in the test with integrin α4β7 [8] and 1.58 s⁻¹ with integrin α4β7 [9].
